Source: patent publication US20250144213A1 (UTC THERAPEUTICS SHANGHAI, published 2025)

T1: BCMA-Fc recombinant protein (human, UniProt Q02223 1-54)
T1 construct: Soluble staining reagent, 5 µg/ml; not shown: Fc part
T1 sequence (looked up): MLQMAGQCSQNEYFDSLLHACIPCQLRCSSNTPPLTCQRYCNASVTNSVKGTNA


Biological target: T1, BCMA-Fc recombinant protein
Test: flow cytometry: lentivirally transduced CAR-T cells stained with 5 µg/ml BCMA-Fc, detected with anti-human IgG Fc (FIG. 17B)

Row | Binder | binding result
1 | anti-BCMA scFv BCMA30 (scFv, also called BCMA30 scFv; BCMA30 CAR) scFv: DIQMTQSPSFLSASVGDRVTITCRASQGISSYLAWYQQKPGKAPKLLIYAASTLQSGVPSRFSGSGSGTEFTLTISSLQPEDFATYYCQQLNSYPPWTFGQGTKVEIKGGGGSGGGGSGGGGSQVQLVQSGAEVKKPGESLKISCKGSGYRFTSYWIGWVRQMPGKGLEWMGIIYPGDSDTRYSPPFQGQVTISADKSIDTAYLQWSSLKASDTAMYYCARLDASGSQRGGMDVWGQGTTVTVSS | binds
2 | anti-BCMA scFv BCMA28 (scFv, also called BCMA28 scFv; BCMA28 CAR) scFv: QSALTQPPSVSEAPRQRVTISCSGSSSNIGQNAVNWYQKLPGKAPKLLIYYNDLVSSGVSDRFSGSKSGTSASLAISGLQSEDEADYYCATWDDSLNGVVFGGGTKVTVLGGGGSGGGGSGGGGSQVQLVQSGPGLVKPSQTLSLTCAISGDSVSSNSAAWNWIRQSPSRGLEWLGRTYYRSKWYNDYAVSVKSRITINPDTSKNQFSLQLNSVTPEDTAVYYCARDYYYGMDVWGQGTTVTVSS | binds
3 | anti-BCMA scFv BCMA31 (scFv, also called BCMA31 scFv; BCMA31 CAR) scFv: QSALTQPPSASGSPGQSVTISCTGTSSDVGTYNYVSWYQQHPGKAPKLMIYDVNQRPSGVPDRFSGSKSGNTASLTVSGLQAEDEADYYCSSYGGSNNLVFGGGTKVTVLGGGGSGGGGSGGGGSEVQLVESGGGLIQPGGSLRLSCAASGFTFSSYWMSWVRQSPGKGLEWVANIKPDGSDKYYVDSVKGRFTISRDNAKNSLDLQMNSLRGEDTAIYYCARGATTYGSWGQGTLVTVSS | binds
4 | anti-BCMA scFv BCMA22 (scFv, also called BCMA22 scFv; BCMA22 CAR) scFv: QSALTQPASVSGSPGQSITISCTGTSSDVGGYNYVSWYQQHPGKAPKLMIYEVTNRPSGVSNRFSGSKSGNTASLTISGLQAEDEAHYYCISYTSSSTLDYVFGTGTKVTVLGGGGSGGGGSGGGGSEVQLVESGPGLVKPSGTLSLTCAVSGGSISSSNWWSWVRQPPGKGLEWIGEIYHSGSTNYNPSLKSRVTISVDKSKNQFSLKLSSVTAADTAVYYCARVGSGYSYGYGDRVLDYWGQGTLVTVSS | binds
5 | anti-BCMA scFv BCMA32 (scFv, also called BCMA32 scFv; BCMA32 CAR) scFv: QSALTQPASVSGSPGQSITISCTGTSSDVGGYNYVSWYQQHPGKAPKLMIYDVSKRPSGVSNRFSGSKSGNTASLTISGLQAEDEADYYCSSYTSSSTVVFGGGTKLTVLGGGGSGGGGSGGGGSQVQLQESGAEVKKPGSSVKVSCKASGGTFSRYAISWVRQAPGQGLEWMGGIIPFFGTSDYAQKFQGRVTITADESTSTAYMDLSRLRSEDTAVYYCAVRVATTGTGFYYAMDVWGQGTTVTVSS | binds

Second part, the binder after the results:

Row | binding result | Binder
6 | binds | anti-BCMA scFv BCMA23 (scFv, also called BCMA23 scFv; BCMA23 CAR) scFv: QSALTQPPSASGTPGQRVTISCSGSSPNIGGNSVNWYQQLPGTAPKLLMYTNNQRPSGVPDRFSGSKSGTSASLAISGLQSEDEADYYCAAWDDSLNGVVFGGGTKLTVLGGGGSGGGGSGGGGSQVQLVQSGAEVKKPGESLKISCKGSGYSFTSYWIGWVRQMPGKGLEWMGIIYPGDSDTRYSPSFQGQVTISADKSISTAYLQWSSLKASDTAMYYCARRGGALDYWGQGTLVTVSS
7 | binds | anti-BCMA scFv BCMA24 (scFv, also called BCMA24 scFv; BCMA24 CAR) scFv: QSVLTQPPSASGTPGQRVTISCSGSSSNIGSYSVNWYQQIPGTAPKLLIYSNNQRPSGVPDRFSGSKSGTSASLAISGLQSEDEADYSCAAWDDSLNGVVFGGGTKLTVLGGGGSGGGGSGGGGSQVQLVQSGAEVKKPGSSVKVSCKASGGTFSSYAISWVRQAPGQGLEWMGGIIPIFGTANYAQKFQGRVTITADESTSTAYMELSSLRSEDTAVYYCARGSFYSSVNVWGQGTTVTVSS
8 | binds | anti-BCMA scFv BCMA27 (scFv, also called BCMA27 scFv; BCMA27 CAR) scFv: QSALTQPPSASGSPGQSVTISCTGSRSNVGSYNDVSWYQQHPGKAPKLIIYDVDKRPAGVPDRFSGSKSGNTASLTVSGLQAEDDADYYCSSYGGTYSLFVFGTGTELTVLGGGGSGGGGSGGGGSEVQLVESGGDLVQPGGSLRLSCAASGFTFSSYGMHWVRQAPGKGLEWVAVISYDGSNKYYADSVKGRFTISRDNSKNTLYLQMNSLRAEDTAVYYCAKEEFYGDSSYGMDVWGQGTTVTVSS

Biological target: T2, CD40-Fc recombinant protein (human, UniProt P25942 21-193)
T2 construct: Soluble staining reagent; also called CD40-Fc protein; not shown: Fc part
Test: FACS staining of T cells expressing the anti-CD40 scFv-CD28 fusion with CD40-Fc protein (FIG. 64)

T2 sequence (P25942 21-193 limits assumed): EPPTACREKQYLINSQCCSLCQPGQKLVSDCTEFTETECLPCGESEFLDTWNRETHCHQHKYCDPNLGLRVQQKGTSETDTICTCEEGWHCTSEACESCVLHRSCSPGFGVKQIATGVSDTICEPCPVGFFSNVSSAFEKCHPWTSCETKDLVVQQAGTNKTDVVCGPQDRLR

Row | binding result | Binder
9 | binds | anti-CD40 scFv 40-45 (in LACOSTIM 40-45.28) (scFv, Tested on T cells as part of the LACOSTIM 40-45.28 (scFv fused with CD28), co-electroporated with the anti-Her2 CAR 4D5.BBZ; also called 40-45 scFv) scFv: QSALTQPASVSGSPGQSITISCTGTSSDVGGYKYVSWYQQHPGKAPKLMIYDVSNRPSGVSNRFSGSKSGNTASLTISGLQAEDEADYYCSSYTSSSTPHVVFGGGTKVTVLGGGGSGGGGSGGGGSEVHLVESGGGVVQPGRSLRLSCAASGFPFSRYGMHWVRQAPGKGLEWVSYISSSGSTIYYADSVKGRFTISRDNSKNTVSLQMNSLRADDTAVYYCSRGTRPGITGRLGYWGQGTLVTVSS
10 | binds | anti-CD40 scFv 40-52 (in LACOSTIM 40-52.28) (scFv, Tested on T cells as part of the LACOSTIM 40-52.28 (scFv fused with CD28), co-electroporated with the anti-Her2 CAR 4D5.BBZ; also called 40-52 scFv) scFv: QSALTQPPSASGSPGQSVTISCTGTSSDVGAYNFVSWYQQHPGNAPKLIIYDVRKRPSGIPDRFSASKSGNTASLTVSGLQADDEADYYCSSYAGNNNLVFGGGTKLTVLGGGGSGGGGSGGGGSQVQLVQSGAEVKKPGSSVKVSCKASGGTFSSYAISWVRQAPGQGLEWMGMINPSGGTTSYAQKFQGRVTMTRDTSTSTVYMELSSLRPEDTAVYYCARGFRMDQWGQGTLVTVSS
11 | binds | anti-CD40 scFv 40-47 (in LACOSTIM 40-47.28) (scFv, Tested on T cells as part of the LACOSTIM 40-47.28 (scFv fused with CD28), co-electroporated with the anti-Her2 CAR 4D5.BBZ; also called 40-47 scFv) scFv: QSALTQPASVSGSPGQSITISCTGTSSDVGAYNYVSWYQQLPGKTPKLMIYDVTNRPSGVSNRFSGSKSGNTASLTISGLQAEDEAYYYCGSYTTSSTLIFGGGTELTVLGGGGSGGGGSGGGGSEVHLVESGGGLVQPGGSLRLSCAASGFTFSSNWMSWVRQAPGKGLEWVANINQDGSEKYYVDSVKGRFTISRDNAKNSLYLQLNSLRAEDTAEYYCARGGYRYAYWGQGTLVTVSS
12 | binds | anti-CD40 scFv 40-37 (in LACOSTIM 40-37.28) (scFv, Tested on T cells as part of the LACOSTIM 40-37.28 (scFv fused with CD28), co-electroporated with the anti-Her2 CAR 4D5.BBZ; also called 40-37 scFv) scFv: SYELTQPPSVSVSPGQTASITCSGDKLGNKYASWYQQKPGQSPVLVIFQDSRRPSGIPERFSGSNSGNTATLTISGTQAMDEADYYCQAWDSSTALFGGGTKLTVLGGGGSGGGGSGGGGSQVQLVQSGGGVVQPGRSLRLSCAASGFTFSSYAMHWVRQAPGKGLEWVAVISKDGSYENYVDSVKGRLAISRDNSKNTLFLQMDSLRPEDTALYFCARDYWYGMDVWGQGTTVTVSS
